Experimental data from patent US20150086555A1.

B1: TCN-521 (3280_D18) (antibody, V domains shown)
VH: EVQLVQSGGGLVQPGGSLRLACVVSGFTVTSNYITWVRQAPGKGLEWVSVIYSHGRAYYSASVNGRFTISRHTSKNTVYLEMNSLRPEDTAVYYCAGGGLVGGYDEYFFDYWGQGTLATVSS
VL: ETVLTQSPGTLSLTPGERATLSCRVGQSVSGSHLAWYQQKPGQAPRLLIYGASSRATGIPDRFGGSVSGTDFTLTISRLEPEDSAVYYCQQYGDSRYTFGQGTKLEIK
B2: TCN-552 (5249_I23) (antibody, V domains shown)
VH: QVQVVQSGAEVKKPGSSVRVSCQASGGTFMNYAIIWVRRAPGQGLEWMGGIIPVFPTPNYAQMFQGRVTISTDESRSTSFLELTNLRYEDTAVYYCARRIYHGGNSGFDFWGQGTLVTVSS
VL: EIVLTQSPATLSLSPGERATLSCRASQSVGNYLAWYQQKPGQAPRLLIYDSSNRAPGIPARFSGSGSGTDFTLTISSLAPEDFAVYYCQQRSKWPPMYSFGHGTKLEIK
B3: TCN-551 (5243_D01) (antibody, V domains shown)
VH: EVQLVQSGSEVKKPGESLKISCKGSGYSFSNYWIGWVRHMPGKGLEWMGIIYPGDSDTRYSPSFQGQVTMSADKSSSTVYLQWSSLKASDTAIYYCARRGGHSFGYGSGGDTHSEFDSWGQGTLVTVSS
VL: QSVLTQSPSVSAAPGQKVTISCSGSDSNIGDYFVCWYQHLPGKPPQLLIYENNKRPSGIPDRFSGSKSGTSATLGITGIQTGDEADYYCATWDGSLSAWVFGGGTKLTVL
B4: TCN-539 (5056_A08) (antibody, V domains shown)
VH: QVQLVESGGGVVQPGRSLRLSCAASEITFITYAMHWVRQAPGKGLEWVALISDDGSNKFYADSVKGRFTISRDNSKNTLYLQMNSLRAEDTAAYYCAREGVYFDSGTYRGYFDYWGQETLVTVSS
VL: EIVLTQSPATLSLSPGERATLSCRASQSVSSYLAWYQQKPGQAPRLLIYDASNRATGIPARFSGSGSGTDFTLTISSLEPEDFAVYYCQQRSHWPPITFGQGTRLEIK
B5: TCN-557 (5081_A04) (antibody, V domains shown)
VH: QVQLVQSGAEVKKPGASVKVSCKASGHTFTGYYIHWVRQAPGQGLEWMGWINPDSGATSSAQNFQGRVTMTGDTSSSTAYMELSRLSFDDTAVYYCARVLFTSPFDFWGEGTLVTVSS
VL: QAVVTQEPSLAVSPGGTVTLTCGSSTGAVTRGHYPYWFQQKPGQAPRALIYDSAGNRHSWTPARFSGSLLGGKAALTLSGAQPEDEAEYYCLLSYSGVWVFGGGTKLTVL
B6: TCN-550 (5096_F06) (antibody, V domains shown)
VH: QVQLQESGPGLVKPSETLSLTCTVSGASINSHYWSWIRQPPGKGLEWIGYVYYSGSTTYNPSLKSRVTLSVDTSKNQFSLNLSSVTAADTAFYYCARHPYDVLTGSGDWFDPWGQGTLVTVSS
VL: SYVLTQAPSVSVAPGQTARITCGGNAIGSKKVHWYQHKAGQAPVLVVYDDTDRPSGIPERFSGSNSWSTATLTINRVEAGDEADYYCQVWDFTIDHVVFGGGTKLTVL
B7: TCN-542 (5079_A16) (antibody, V domains shown)
VH: QVQLQESGPGLVKPSQTLSLTCTVSGGSISSGNYYWNWVRQHPGKGLEWIGYIYYRGSTFYNPSLKSRVTISIDTSKNQFSLRLSSVTAADTAVYYCAKDTRSSLDNYQYGMDVWGQGTTVTVSS
VL: QTVVTQEPSLTVSPGGTVTLTCASSTGAVTSSYFPNWFQQKPGQAPRPLIYSTTIRHSWTPARFSGSLLGGKAALTLSGVQPEDEADYYCLLYSGGDPVAFGGGTKLTVL
B8: TCN-541 (5062_M11) (antibody, V domains shown)
VH: QVQLQESGPGLVKPSETLSLTCTVSGGSINSYYWNWIRQPPGKGLEWIGYIYHSGSTNYNPSLKSRVTISVDTSKNQFSLQLSSVTAADTAVYYCARLRTDYGDPDSVYYYGMDVWGQGTTVTVSS
VL: SYELTQPPSVSVSPGQTARITCSGDALPKQNAYWYQQKPGQAPVLLIYKDSERPSGIPERFSGSSSGTTVTLTISGVQAEDEADYYCQSADSSGTSWVFGGGTKLTVL

Target: recombinant soluble homotrimeric HA of A/common magpie/Hong Kong/5052/07 (H5N1) (Influenza A virus A/common magpie/Hong Kong/5052/2007(H5N1))
Experiment: HA microarray, BCC supernatant
Settings: remark: other sources report otherwise

Binder	Trimeric HA Binding: RLU [RLU]
B1	13500
B2	42200
B3	45700
B4	3960

Target: recombinant soluble homotrimeric HA, A/common magpie/Hong Kong/5052/07 H5N1 (Influenza A virus A/common magpie/Hong Kong/5052/2007(H5N1))
Experiment: microarray, transfection SN IgG, trimeric HA
Settings: remark: other sources report otherwise

Binder	Trimeric HA Binding: RLU [RLU]
B5	54900
B2	34600
B6	993

Target: recombinant homotrimeric HA A/common magpie/Hong Kong/5052/07 H5N1 (Influenza A virus A/common magpie/Hong Kong/5052/2007(H5N1))
Experiment: protein microarray, purified IgG, trimeric HA
Settings: remark: other sources report otherwise

Binder	Trimeric HA Binding: RLU [RLU]
B7	1540
B5	23700
B2	19400
B6	753
B8	728
B3	907
